Test results as given in article doi:10.1101/2020.05.04.076190.

Target: MycWT bHLH-LZ;Max bHLH-LZ (p21 isoform) (human?;, UniProt P01106;P61244 ;, |)
Experiment: EMSA

B1: CACGTG E-box probe (dsDNA)
DNA 1: GCGCGGGCACGTGGGCCGGGG
DNA 2: CCCCGGCCCACGTGCCCGCGC
B1: binds.
